Tested on: ZDF fa/fa rats
Experiment: 21-day ZDF fa/fa study: tolerability
Format: in vivo, rat
Conditions: different doses (0.2, 0.04, 0.008 mg/kg s.c. every 3 days), 21 days
Description: Animals. Male ZDF fa/fa rats were obtained from CRL (Kingston, N.Y.). Upon arrival, rats were seven weeks of age. The rats were housed individually per cage in a room with a photo cycle of 12 hours of light and 12 hours of dark and an ambient temperature of 70-72° F. and fed on regular rodent diet and water ad libitum. At the age of eleven weeks, rats were divided into six groups (Table 5) of eight rats per group based on fasting blood glucose levels. A sub-group of four rats per group was maintained in parallel to the main groups and was dosed similarly for twenty-one days for a hyperinsulinemic-euglycemic clamp study.
The test compounds 5F12G1 and MG2b-57 were administered subcutaneously once every three days. Exenatide was administrated intraperitoneally twice every day and sitagliptin was administrated orally once every day for a period of twenty-one days.

B1: 5F12G1: murine monoclonal anti-BKB2R antibody (IgG2b,κ), VH comprising SEQ ID NO:1, VL comprising SEQ ID NO:2 (antibody, listed as Mus musculus, V domains shown)
VH: EVKLEESGGGLVQPGGSMKLSCVVSGFTFSDYWMSWVRHSPEMGLEWVAEIRLKSDNYATHYAESVKGRFTISRDDSKSRLYLQINSLRGEDTGIYYCTRDYYAMEYWGQGTSVTVSS
VL: DVVMTQTPLSLPVSLGDQASISCRSSQTIVHSNGKTYLEWYLQKPGQSPKLLIYKVSNRFSGVPDRFSGSGSGTEFTLKISRVETEDLGVYYCFQASHVPYTFGGGTKLEIK
  tolerability / toxic effects: well tolerated and no toxic effects were noted

— patent US20140017242A1, “ANTI-BRADYKININ B2 RECEPTOR (BKB2R) MONOCLONAL ANTIBODY” (Diamedica, Inc., priority 2010, published 2014)
